Laboratory results: patent publication US20250002600A1 (Genmab, published 2025)
Values joined by “and” are separate entries in the source; they are usually repeats but may differ in a detail not shown here. Equal values may be shown once.

B1: IgG1-PD1 (antibody)
heavy: QVQLVESGGGLVQPGTSLRLSCSVSGFSLYSYNMGWVRQAPGKGLEYIGIISGGTIGHYASWAKGRFTISRDTSKTTLYLQMNSLTTEDTATYFCARAFYDDYDYNVWGPGTLVTVSSASTKGPSVFPLAPSSKSTSGGTAALGCLVKDYFPEPVTVSWNSGALTSGVHTFPAVLQSSGLYSLSSVVTVPSSSLGTQTYICNVNHKPSNTKVDKRVEPKSCDKTHTCPPCPAPEFERGPSVFLFPPKPKDTLMISRTPEVTCVVVDVSHEDPEVKFNWYVDGVEVHNAKTKPREEQYNSTYRVVSVLTVLHQDWLNGKEYKCKVSNKALPAPIEKTISKAKGQPREPQVYTLPPSREEMTKNQVSLTCLVKGFYPSDIAVEWESNGQPENNYKTTPPVLDSDGSFFLYSKLTVDKSRWQQGNVFSCSVMHEALHNHYTQKSLSLSPG
light: AIQLTQSPSSLSASVGGTVTITCQSSQSVYGNNQLSWYQQKPGQPPKLLIYQASKLETGVPSRFRGSGSGTQFTLTISSLQSEDFATYYCAGGYSSSSDTTFGGGTEVVVKRTVAAPSVFIFPPSDEQLKSGTASVVCLLNNFYPREAKVQWKVDNALQSGNSQESVTEQDSKDSTYSLSSTLTLSKADYEKHKVYACEVTHQGLSSPVTKSFNRGEC
B2: IgG1-ctrl (antibody)
heavy: not shown
light: EIVLTQSPGTLSLSPGERATFSCRSSHSIRSRRVAWYQHKPGQAPRLVIHGVSNRASGISDRFSGSGSGTDFTLTITRVEPEDFALYYCQVYGASSYTFGQGTKLERKRTVAAPSVFIFPPSDEQLKSGTASVVCLLNNFYPREAKVQWKVDNALQSGNSQESVTEQDSKDSTYSLSSTLTLSKADYEKHKVYACEVTHQGLSSPVTKSFNRGEC
notes: also called IgG1-b12 with wild-type Fc region

Key:
[1] = molecular target: human PD-1 expressed on reporter Jurkat T cells (PD-1 Effector Cells) (human, UniProt Q15116 25-288); test: cell-based or functional assay
human PD-1 expressed on reporter Jurkat T cells (PD-1 Effector Cells), sequence (Q15116 25-288): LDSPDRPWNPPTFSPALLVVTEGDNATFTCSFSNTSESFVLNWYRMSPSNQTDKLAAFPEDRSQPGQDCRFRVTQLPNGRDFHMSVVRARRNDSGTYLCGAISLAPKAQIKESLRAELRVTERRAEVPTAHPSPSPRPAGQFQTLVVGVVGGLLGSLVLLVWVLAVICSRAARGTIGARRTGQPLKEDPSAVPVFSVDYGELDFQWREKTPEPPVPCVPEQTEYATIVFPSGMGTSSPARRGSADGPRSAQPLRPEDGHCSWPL

[2] = molecular target: T1, human FcγRIa transiently expressed on CHO-S cells (human, UniProt P12314 16-374); test: flow cytometry on CHO-S cells transiently expressing human FcγRIa, PE-conjugated goat anti-human IgG F(ab')2, % PE+ cells
T1 construct: whole, on cells; also called cell surface expressed FcγRIa
T1 sequence (P12314 16-374): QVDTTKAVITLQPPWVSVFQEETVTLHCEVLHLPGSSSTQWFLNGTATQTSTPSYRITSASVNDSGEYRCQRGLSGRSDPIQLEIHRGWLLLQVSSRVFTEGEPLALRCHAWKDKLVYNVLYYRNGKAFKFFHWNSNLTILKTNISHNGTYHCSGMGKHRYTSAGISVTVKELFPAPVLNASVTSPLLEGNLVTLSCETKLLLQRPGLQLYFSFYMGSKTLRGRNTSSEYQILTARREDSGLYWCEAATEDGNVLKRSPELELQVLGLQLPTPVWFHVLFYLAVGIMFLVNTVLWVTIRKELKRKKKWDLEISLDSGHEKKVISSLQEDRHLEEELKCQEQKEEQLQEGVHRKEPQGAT
Procedure: Cells were centrifuged, supernatant was removed, and cells (30,000 cells in 50 μL) were incubated with 50 μL of the antibody dilutions for 30 min at 4° C. Cells were washed twice with GMB FACS buffer and incubated with 50 μL secondary antibody (PE-conjugated goat-anti-human IgG F(ab′)2; 1:500) for 30 min at 4° C., protected from light. Cells were washed twice with GMB FACS buffer and resuspended in GMB FACS buffer supplemented with 2 mM EDTA and DAPI viability marker (1:5,000). Antibody binding to viable cells was analyzed by flow cytometry on an Intellicyt iQue PLUS Screener (Intellicyt Corporation) using FlowJo software by gating on PE-positive, DAPI-negative cells. Binding curves were analyzed using non-linear regression analysis (four-parameter dose-response curve fits) in GraphPad Prism.

Binder | EC50 of PD-1/PD-L1 checkpoint blockade (luminescence, reporter assay) [1] | EC50 (read off the curve) [2] [µg/mL]
B1 | 0.165 µg/mL and 1.12 nM | –
B2 | – | ~0.01
